Assay results as given in US11325966.

Tests used:
Assay in all cases: cell-based or functional assay
[1] = target: HIV-1 Env of pseudovirus HIV-16055-2.3 (HIV-1)
[2] = target: HIV-1 Env of pseudovirus QH0692.42 (HIV-1)
[3] = target: HIV-1 Env of pseudovirus WITO4160.33 (HIV-1)
[4] = target: HIV-1 Env of pseudovirus 62357_14_D3_4589 (HIV-1)
[5] = target: HIV-1 Env of pseudovirus A07412M1.vrc12 (HIV-1)
[6] = target: HIV-1 Env of pseudovirus HIV-16845-2.22 (HIV-1)
[7] = target: HIV-1 Env of pseudovirus WEAU_d15_410_787 (HIV-1)
[8] = target: HIV-1 Env of pseudovirus 211-9 (HIV-1)
[9] = target: HIV-1 Env of pseudovirus 191821_E6_1 (HIV-1)
[10] = target: HIV-1 Env of pseudovirus 6540.v4.c1 (HIV-1)
[11] = target: HIV-1 Env of pseudovirus 6480.v4.c25 (HIV-1)
[12] = target: HIV-1 Env of pseudovirus X1632_S2_B10 (HIV-1)
[13] = target: HIV-1 Env of pseudovirus SC05_8C11_2344 (HIV-1)
[14] = target: HIV-1 Env of pseudovirus BJOX015000.11.5 (HIV-1)
[15] = target: HIV-1 Env of pseudovirus HIV-001428-2.42 (HIV-1)
[16] = target: HIV-1 Env of pseudovirus 6952.v1.c20 (HIV-1)
[17] = target: HIV-1 Env of pseudovirus 249M B10 (HIV-1)
[18] = target: HIV-1 Env of pseudovirus 1054_07_TC4_1499 (HIV-1)
[19] = target: HIV-1 Env of pseudovirus 1006_11_C3_1601 (HIV-1)
[20] = target: HIV-1 Env of pseudovirus Ce2060_G9 (HIV-1)
[21] = target: HIV-1 Env of pseudovirus 231966.c02 (HIV-1)
[22] = target: HIV-1 Env of pseudovirus CNE58 (HIV-1)
[23] = target: HIV-1 Env of pseudovirus SC422661.8 (HIV-1)
[24] = target: HIV-1 Env of pseudovirus CAP45.2.00.G3 (HIV-1)
[25] = target: HIV-1 Env of pseudovirus 191084 B7-19 (HIV-1)
[26] = target: HIV-1 Env of pseudovirus 3365.v2.c2 (HIV-1)
[27] = target: HIV-1 Env of pseudovirus X1254_c3 (HIV-1)
[28] = target: HIV-1 Env of pseudovirus BJOX009000.02.4 (HIV-1)
[29] = target: HIV-1 Env of pseudovirus ZM249M.PL1 (HIV-1)
[30] = target: HIV-1 Env of pseudovirus Ce0682_E4 (HIV-1)
[31] = target: HIV-1 Env of pseudovirus PVO.4 (HIV-1)
[32] = target: HIV-1 Env of pseudovirus Q461.e2 (HIV-1)
[33] = target: HIV-1 Env of pseudovirus RHPA4259.7 (HIV-1)
[34] = target: HIV-1 Env of pseudovirus T278-50 (HIV-1)
[35] = target: HIV-1 Env of pseudovirus ZM109F.PB4 (HIV-1)
[36] = target: HIV-1 Env of pseudovirus BJOX025000.01.1 (HIV-1)
[37] = target: HIV-1 Env of pseudovirus 3301.v1.c24 (HIV-1)
[38] = target: HIV-1 Env of pseudovirus X1193_c1 (HIV-1)
[39] = target: HIV-1 Env of pseudovirus 6041.v3.c23 (HIV-1)

354BG8 (antibody)
IC50 in TZM-bl assay [1]: > 10 µg/mL
IC80 in TZM-bl assay [1]: > 10 µg/mL
IC50 in TZM-bl assay [2]: 0.106 µg/mL
IC80 in TZM-bl assay [2]: 0.383 µg/mL
IC50 in TZM-bl assay [3]: 0.111 µg/mL
IC80 in TZM-bl assay [3]: 0.828 µg/mL
IC50 in TZM-bl assay [4]: > 10 µg/mL
IC80 in TZM-bl assay [4]: > 10 µg/mL
IC50 in TZM-bl assay [5]: 0.011 µg/mL
IC80 in TZM-bl assay [5]: 0.037 µg/mL
IC50 in TZM-bl assay [6]: 0.727 µg/mL
IC80 in TZM-bl assay [6]: 3.93 µg/mL
IC50 in TZM-bl assay [7]: 0.031 µg/mL
IC80 in TZM-bl assay [7]: 0.112 µg/mL
IC50 in TZM-bl assay [8]: 0.065 µg/mL
IC80 in TZM-bl assay [8]: 0.403 µg/mL
IC50 in TZM-bl assay [9]: > 10 µg/mL
IC80 in TZM-bl assay [9]: > 10 µg/mL
IC50 in TZM-bl assay [10]: > 10 µg/mL
IC80 in TZM-bl assay [10]: > 10 µg/mL
IC50 in TZM-bl assay [11]: 0.006 µg/mL
IC80 in TZM-bl assay [11]: 0.023 µg/mL
IC50 in TZM-bl assay [12]: > 10 µg/mL
IC80 in TZM-bl assay [12]: > 10 µg/mL
IC50 in TZM-bl assay [13]: 0.017 µg/mL
IC80 in TZM-bl assay [13]: 0.048 µg/mL
IC50 in TZM-bl assay [14]: > 10 µg/mL
IC80 in TZM-bl assay [14]: > 10 µg/mL
IC50 in TZM-bl assay [15]: 0.035 µg/mL
IC80 in TZM-bl assay [15]: 0.126 µg/mL
IC50 in TZM-bl assay [16]: 0.023 µg/mL
IC80 in TZM-bl assay [16]: 0.086 µg/mL
IC50 in TZM-bl assay [17]: > 10 µg/mL
IC80 in TZM-bl assay [17]: > 10 µg/mL
IC50 in TZM-bl assay [18]: 0.048 µg/mL
IC80 in TZM-bl assay [18]: 0.222 µg/mL
IC50 in TZM-bl assay [19]: 0.002 µg/mL
IC80 in TZM-bl assay [19]: 0.006 µg/mL
IC50 in TZM-bl assay [20]: > 10 µg/mL
IC80 in TZM-bl assay [20]: > 10 µg/mL
IC50 in TZM-bl assay [21]: > 10 µg/mL
IC80 in TZM-bl assay [21]: > 10 µg/mL
IC50 in TZM-bl assay [22]: 0.165 µg/mL
IC80 in TZM-bl assay [22]: 0.476 µg/mL
IC50 in TZM-bl assay [23]: 0.058 µg/mL
IC80 in TZM-bl assay [23]: 0.368 µg/mL
IC50 in TZM-bl assay [24]: > 10 µg/mL
IC80 in TZM-bl assay [24]: > 10 µg/mL
IC50 in TZM-bl assay [25]: 0.026 µg/mL
IC80 in TZM-bl assay [25]: 0.108 µg/mL
IC50 in TZM-bl assay [26]: 0.057 µg/mL
IC80 in TZM-bl assay [26]: 0.2 µg/mL
IC50 in TZM-bl assay [27]: 0.063 µg/mL
IC80 in TZM-bl assay [27]: 0.239 µg/mL
IC50 in TZM-bl assay [28]: > 10 µg/mL
IC80 in TZM-bl assay [28]: > 10 µg/mL
IC50 in TZM-bl assay [29]: > 10 µg/mL
IC80 in TZM-bl assay [29]: > 10 µg/mL
IC50 in TZM-bl assay [30]: > 10 µg/mL
IC80 in TZM-bl assay [30]: > 10 µg/mL
IC50 in TZM-bl assay [31]: 0.072 µg/mL
IC80 in TZM-bl assay [31]: 0.252 µg/mL
IC50 in TZM-bl assay [32]: > 10 µg/mL
IC80 in TZM-bl assay [32]: > 10 µg/mL
IC50 in TZM-bl assay [33]: 0.023 µg/mL
IC80 in TZM-bl assay [33]: 0.083 µg/mL
IC50 in TZM-bl assay [34]: 1.71 µg/mL
IC80 in TZM-bl assay [34]: > 10 µg/mL
IC50 in TZM-bl assay [35]: > 10 µg/mL
IC80 in TZM-bl assay [35]: > 10 µg/mL
IC50 in TZM-bl assay [36]: > 10 µg/mL
IC80 in TZM-bl assay [36]: > 10 µg/mL
IC50 in TZM-bl assay [37]: 0.018 µg/mL
IC80 in TZM-bl assay [37]: 0.049 µg/mL
IC50 in TZM-bl assay [38]: 0.07 µg/mL
IC80 in TZM-bl assay [38]: 0.207 µg/mL
IC50 in TZM-bl assay [39]: > 10 µg/mL
IC80 in TZM-bl assay [39]: > 10 µg/mL

BG18 IgG (354BG18) (antibody)
IC50 in TZM-bl assay [1]: > 30 µg/mL
IC80 in TZM-bl assay [1]: > 30 µg/mL
IC50 in TZM-bl assay [2]: 0.013 µg/mL
IC80 in TZM-bl assay [2]: 0.042 µg/mL
IC50 in TZM-bl assay [3]: 0.018 µg/mL
IC80 in TZM-bl assay [3]: 0.25 µg/mL
IC50 in TZM-bl assay [4]: 3.01 µg/mL
IC80 in TZM-bl assay [4]: > 30 µg/mL
IC50 in TZM-bl assay [5]: 0.081 µg/mL
IC80 in TZM-bl assay [5]: 1.72 µg/mL
IC50 in TZM-bl assay [6]: 0.019 µg/mL
IC80 in TZM-bl assay [6]: 0.09 µg/mL
IC50 in TZM-bl assay [7]: 0.003 µg/mL
IC80 in TZM-bl assay [7]: 0.012 µg/mL
IC50 in TZM-bl assay [8]: 1.3 µg/mL
IC80 in TZM-bl assay [8]: 5.53 µg/mL
IC50 in TZM-bl assay [9]: 14.1 µg/mL
IC80 in TZM-bl assay [9]: > 30 µg/mL
IC50 in TZM-bl assay [10]: 28.2 µg/mL
IC80 in TZM-bl assay [10]: > 30 µg/mL
IC50 in TZM-bl assay [11]: 0.016 µg/mL
IC80 in TZM-bl assay [11]: 0.116 µg/mL
IC50 in TZM-bl assay [12]: > 30 µg/mL
IC80 in TZM-bl assay [12]: > 30 µg/mL
IC50 in TZM-bl assay [13]: 0.003 µg/mL
IC80 in TZM-bl assay [13]: 0.016 µg/mL
IC50 in TZM-bl assay [14]: > 30 µg/mL
IC80 in TZM-bl assay [14]: > 30 µg/mL
IC50 in TZM-bl assay [15]: 0.004 µg/mL
IC80 in TZM-bl assay [15]: 0.021 µg/mL
IC50 in TZM-bl assay [16]: 0.005 µg/mL
IC80 in TZM-bl assay [16]: 0.011 µg/mL
IC50 in TZM-bl assay [17]: > 30 µg/mL
IC80 in TZM-bl assay [17]: > 30 µg/mL
IC50 in TZM-bl assay [18]: 0.005 µg/mL
IC80 in TZM-bl assay [18]: 0.022 µg/mL
IC80 in TZM-bl assay [19]: 0.004 µg/mL
IC50 in TZM-bl assay [20]: > 30 µg/mL
IC80 in TZM-bl assay [20]: > 30 µg/mL
IC50 in TZM-bl assay [21]: > 30 µg/mL
IC80 in TZM-bl assay [21]: > 30 µg/mL
IC50 in TZM-bl assay [22]: 0.024 µg/mL
IC80 in TZM-bl assay [22]: 0.073 µg/mL
IC50 in TZM-bl assay [23]: 0.005 µg/mL
IC80 in TZM-bl assay [23]: 0.021 µg/mL
IC50 in TZM-bl assay [24]: > 30 µg/mL
IC80 in TZM-bl assay [24]: > 30 µg/mL
IC50 in TZM-bl assay [25]: 0.011 µg/mL
IC80 in TZM-bl assay [25]: 0.043 µg/mL
IC50 in TZM-bl assay [26]: 0.013 µg/mL
IC80 in TZM-bl assay [26]: 0.037 µg/mL
IC50 in TZM-bl assay [27]: 0.004 µg/mL
IC80 in TZM-bl assay [27]: 0.012 µg/mL
IC50 in TZM-bl assay [28]: 24.4 µg/mL
IC80 in TZM-bl assay [28]: > 30 µg/mL
IC50 in TZM-bl assay [29]: > 30 µg/mL
IC80 in TZM-bl assay [29]: > 30 µg/mL
IC50 in TZM-bl assay [30]: > 30 µg/mL
IC80 in TZM-bl assay [30]: > 30 µg/mL
IC50 in TZM-bl assay [31]: 0.003 µg/mL
IC80 in TZM-bl assay [31]: 0.013 µg/mL
IC50 in TZM-bl assay [32]: > 30 µg/mL
IC80 in TZM-bl assay [32]: > 30 µg/mL
IC50 in TZM-bl assay [33]: 1.44 µg/mL
IC80 in TZM-bl assay [33]: > 30 µg/mL
IC50 in TZM-bl assay [34]: 2.95 µg/mL
IC80 in TZM-bl assay [34]: 12.9 µg/mL
IC50 in TZM-bl assay [35]: > 30 µg/mL
IC80 in TZM-bl assay [35]: > 30 µg/mL
IC50 in TZM-bl assay [36]: > 30 µg/mL
IC80 in TZM-bl assay [36]: > 30 µg/mL
IC50 in TZM-bl assay [37]: 0.025 µg/mL
IC80 in TZM-bl assay [37]: 0.082 µg/mL
IC50 in TZM-bl assay [38]: 0.005 µg/mL
IC80 in TZM-bl assay [38]: 0.022 µg/mL
IC50 in TZM-bl assay [39]: > 30 µg/mL
IC80 in TZM-bl assay [39]: > 30 µg/mL
